The text below walks through data of patent US10787640B2, “Producing mesodermal cell types and methods of using the same” (The Board of Trustees of the Leland Stanford Junior …, priority 2015, dated 2020).

Assay [1] relates to hESC-derived cardiac mesoderm. As to the kind of experiment: Cardiac mesoderm differentiation into cardiovascular fates, qPCR. It is filed as cell-based, human. Here is the method: Day 2 lateral mesoderm was differentiated into day 4 cardiac mesoderm by treating them with 1 μM A8301+30 ng/mL BMP4+1 μM C59+20 ng/mL FGF2 for 48 hrs, or alternatively, with 1 μM A8301+30 ng/mL BMP4+20 ng/mL FGF2 for 24 hrs followed by 25 ng/mL Activin+30 ng/mL BMP4+1 μM C59 for the next 24 hrs (schema in FIG. 5E; positive effect of mid-stage Activin shown in FIG. 12K). Subsequently, day 4 cardiac mesoderm was briefly washed (DMEM/F12) and treated with 30 ng/mL BMP4+1 μM XAV939+200 μg/mL 2-phospho-ascorbic acid (Sigma) for 48-96 hrs to yield day 6-8 cardiomyocyte-containing populations. Spontaneously contracting cardiomyocyte foci were evident from day 8 onwards.
C) To reveal the possible identity of non-cardiac mesoderm lineages that were contaminating cardiac mesoderm-containing cultures, NKX2.5-GFP hESCs were differentiated towards mid primitive streak (day 1) and were differentiated towards a heterogeneous population containing cardiac mesoderm (day 3) by treatment with SB-505124+BMP4+C59 (without FGF2) on days 2-3 of differentiation. FACS was performed on day 3 to purify either NKX2.5-GFP^+ or NKX2.5-GFP^− cells (top subpanels) which were sorted for qPCR (bottom subpanels). Gene expression was normalized to expression of a gene in the NKX2.5-GFP^+ fraction (dotted line). D) Timecourse of gene expression in hESCs differentiating towards mid primitive streak and lateral mesoderm, with treatment by SB-505124+BMP4+C59 on days 2-3 of differentiation. […] G) To assess whether a stabilized vitamin C analog (ascorbic acid-2-phosphate) (AA2P) enhanced cardiac mesoderm differentiation into cardiomyocytes, day 4 hESC-derived cardiac mesoderm was exposed to BMP4 (30 ng/mL)+XAV939 (1 μM) for 48 hours in the presence or absence of 200 μg/mL AA2P and qPCR was conducted of day 6 populations; qPCR data were normalized such that expression values in the highest-expressing sample was normalized=1.0. […] J) In the mouse embryo, endocardium (progenitors to heart-affiliated endothelium) are marked by transient coexpression of pan-heart marker Nkx2.5 together with endothelial markers (Ferdous et al., 2009; Stanley et al., 2002).

A further assay has as its system hESCs. As to the kind of experiment: Primitive streak (PS) induction from hESCs, qPCR. It is filed as cell-based, human. Here is the method: As aforementioned, after overnight plating, hPSCs were briefly washed (with DMEM/F12) and then differentiated into either anterior primitive streak (30 ng/mL Activin A+4 μM CHIR99021+20 ng/mL FGF2+100 nM PIK90; for subsequent paraxial mesoderm induction) or mid primitive streak ([…] Activin A+40 ng/mL BMP4+6 μM CHIR99021+20 ng/mL FGF2+100 nM PIK90; for subsequent cardiac mesoderm induction) for 24 hrs.
Total cDNA was diluted 1:10-1:30 in H2O and qPCR was performed with the SensiFAST SYBR Lo-ROX Kit (Bioline) with 10 μL qPCR reactions per well in a 384-well plate: 5.0 μL 2× qPCR Master Mix+4.6 μL cDNA (totaling ˜120 ng of cDNA)+0.4 μL of 10 μM primer stock (5 μM forward+5 μM reverse primers). In general, gene-specific primer pairs were tested for (1) specificity of amplicon amplification (only one peak on a dissociation curve) and (2) linearity of amplicon amplification (linear detection of gene expression in cDNA samples serially diluted seven times over two orders of magnitude, with 90-110% efficiency of amplification deemed acceptably linear). After qPCR plates were prepared by arraying sample-specific cDNAs and gene-specific primers, they were sealed and briefly centrifuged (5 mins). 384-well qPCR plates and their adhesive sealing sheets were obtained from Thermo (AB1384 and AB0558, respectively). qPCR plates were run on a 7900HT Fast Real-Time PCR System (Applied Biosystems) with the following cycling parameters: initial dissociation (95° C., 2 mins) followed by 40 cycles of amplification and SYBR signal detection (95° C. dissociation, 5 seconds; 60° C. annealing, 10 seconds; followed by 72° C. extension, 30 seconds), with a final series of steps to generate a dissociation curve at the end of each qPCR run. During qPCR data analysis, the fluorescence threshold to determine Ct values was set at the linear phase of amplification; other qPCR data analysis methods including qPCR heatmap generation using the GenePattern platform (Broad Institute) were described previously by Loh et al., 2014, the disclosure of which is incorporated herein by reference in its entirety.
E) To assess whether inducing PS in the presence of TGFβ signaling altered its downstream potential to form different kinds of mesoderm, (i) H7 hESCs were differentiated into PS with CHIR99021+FGF2+PIK90 (CFK) for 24 hours in the presence or absence of increasing amounts of Activin (10-100 ng/mL), and then were transferred into paraxial mesoderm induction conditions (A-83-01+CHIR99021+DM3189+FGF2) for 24 hrs, and qPCR was conducted or (ii) H7 hESCs were differentiated into PS with BMP4 (10 ng/mL)+CHIR99021+FGF2+PIK90 (B10CFK) for 24 hours in the presence or absence of increasing amounts of Activin (10-100 ng/mL), and then were transferred into lateral/cardiac mesoderm inductions (A-83-01+BMP4+C59) for 24 hours and qPCR was conducted. […] F) To assess whether inducing PS in the presence of BMP signaling altered its downstream potential to form different kinds of mesoderm, H7 hESCs were differentiated into PS with Activin (10 ng/mL)+CHIR99021+FGF2+PIK90 (A10CFK) for 24 hours in the presence of absence of increasing amounts of BMP4 (1-40 ng/mL), and then were (i) transferred into paraxial mesoderm induction conditions (A-83-01+CHIR99021+DM3189+FGF2) for 24 hrs, and qPCR was conducted or were (ii) transferred into lateral/cardiac mesoderm inductions (A-83-01+BMP4+C59) for 24 hours and qPCR was conducted. […] G) H7 hESCs were differentiated into anterior primitive streak (30 ng/mL Activin+4 μM CHIR99021+20 ng/mL FGF2+100 nM PIK90) in the presence or absence of BMP4 (10 ng/mL) for 24 hours, and then transferred into paraxial mesoderm induction conditions for 24 hours before TBX6 immunostaining was conducted. […]

Take `Cc1cnc(-c2cnc(NCCNc3ccc(C#N)cn3)nc2-c2ccc(Cl)cc2Cl)[nH]1` [CHIR99021, 6-[[2-[[4-(2,4-Dichlorophenyl)-5-(5-methyl-1H-imidazol-2-yl)-2-pyrimidinyl]amino]ethyl]amino]-3-pyridinecarbonitrile]: the “differentiation into cardiomyocytes (qPCR day 6)” value in assay [1] (BMP4 30 ng/mL with CHIR99021 3 μM, 48 hours) is reported as “fully blocked cardiac mesoderm differentiation into cardiomyocytes”. In addition, the “PS marker expression (qPCR)” value in the assay with hESCs (24 hours in A3B3F20, 300 ng/mL WNT3A or 0.5-8 μM CHIR99021) was “broadly induces both anterior (TBX6) and mid/posterior (FOXF1, MESP1) PS markers”.
As to `Cc1cccc(-c2[nH]c(C(C)(C)C)nc2-c2ccc3c(c2)OCO3)n1` [SB-505124, 2-[4-(1,3-Benzodioxol-5-yl)-2-(1,1-dimethylethyl)-1H-imidazol-5-yl]-6-methyl-pyridine], the PS differentiation result with hESCs (CHIR99021+20 ng/mL FGF2+100 nM PIK90 with 2 μM SB-505124 or 1 μM A-83-01) is listed as “strongly impairs PS differentiation”.

B1: BMP4: BMP family ligand, BMP agonist (protein, UniProt P12644 293-408, looked up)
Bone morphogenetic protein 4: SPKHHSQRARKKNKNCRRHSLYVDFSDVGWNDWIVAPPGYQAFYCHGDCPFPLADHLNSTNHAIVQTLVNSVNSSIPKACCVPTELSAISMLYLDEYDKVVLKNYQEMVVEGCGCR
With B1, the “cardiovascular fate commitment (TNNT2, MYH6, MYH7)” value in assay [1] (XAV939 1 μM with BMP4 5-30 ng/mL, 48 hours) is on record as “preferentially promotes commitment to cardiomyocyte fate”. Also, the “cardiomyocyte and endothelial gene expression” value in assay [1] (day 4 cardiac mesoderm, BMP4 30 ng/mL, 48 hours) is “upregulation of both cardiomyocyte (myocardium) and endothelial (presumptive endocardium) genes”. Moreover, in the assay with hESCs (ACFK with LDN193189 250 nM or BMP4 3-100 ng/mL), the “PS formation and anterior-posterior patterning” value is “induced posterior PS”.

B2: Activin: TGFβ agonist (protein, UniProt P08476 311-426, looked up)
Inhibin beta A chain: GLECDGKVNICCKKQFFVSFKDIGWNDWIIAPSGYHANYCEGECPSHIAGTSGSSLSFHSTVINHYRMRGHSPFANLKSCCVPTKLRPMSMLYYDDGQNIIKKDIQNMIVEECGCS
modifications: Inhibin beta A chain
notes: TGFβ agonist
As for B2, in assay [1] (day 3 cardiac mesoderm, BMP4+C59+FGF2 with Activin 25 ng/mL, 24 hours), the subsequent cardiomyocyte differentiation result is “enhanced subsequent cardiomyocyte differentiation”.
